Measurements as given in paper PMC10593751.

Molecular target: human IgG1 (human)
Assay: ELISA; immobilized human IgG (hIgG1 or hIgG2) used to pull down CD64; n = 3

| Kd [nM] | Substance |
| --- | --- |
| 0.0536 | CD64 engineered at the N-terminus with the CKAAKNK (CK) tissue homing peptide (receptor) |
| 0.0589 | wild-type CD64 (Fc-gamma receptor 1) (from UniProt P12314 16-374) |
